Data published in the supplement of paper PMC9428881.
± gives the standard error.

Experiment: background-corrected fluorescence of 3'-dye-labeled ssDNA relative to brightest sequence (3'-GCGCG) (fraction); higher = brighter dye fluorescence (less quenching)
Settings: dye: Cy5 (3' terminal)
Experimental: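 Single-stranded DNA is synthesized in situ on glass microarrays by 5'->3' photolithographic synthesis, with a Cy3 or Cy5 phosphoramidite coupled at the 3' end next to all 1024 permuted pentamers P1-P5. The construct is 5'-T5-(ACGT minus P5..P1 trinucleotides)-T15-P5P4P3P2P1-dye-3'; the dye is a 3' terminal modification, not part of the sequence. Arrays were scanned at 532 nm (Cy3) or 635 nm (Cy5), background from unlabeled oligos was subtracted, and values are averaged over 10 replicate features per array and at least 3 independent syntheses.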

Row | Sequence | background-corrected fluorescence
1 | TTTTTGCAGCAGCAGCAGCATTTTTTTTTTTTTTTTTTTT | 0.34 ± 0.015
2 | TTTTTGCAGCAGCAGCATCATTTTTTTTTTTTTTTTTTTG [GTTTT] | 0.334 ± 0.032
3 | TTTTTGCAGCAGCAGCATGATTTTTTTTTTTTTTTTTTTC [CTTTT] | 0.257 ± 0.015
4 | TTTTTGCAGCAGCAGCATGCTTTTTTTTTTTTTTTTTTTA [ATTTT] | 0.411 ± 0.028
5 | TTTTTGCAGCAGCATCAGCATTTTTTTTTTTTTTTTTTGT [TGTTT] | 0.46 ± 0.028
6 | TTTTTGCAGCAGCATCATCATTTTTTTTTTTTTTTTTTGG [GGTTT] | 0.444 ± 0.027
7 | TTTTTGCAGCAGCATCATGATTTTTTTTTTTTTTTTTTGC [CGTTT] | 0.341 ± 0.032
8 | TTTTTGCAGCAGCATCATGCTTTTTTTTTTTTTTTTTTGA [AGTTT] | 0.524 ± 0.03
9 | TTTTTGCAGCAGCATGAGCATTTTTTTTTTTTTTTTTTCT [TCTTT] | 0.321 ± 0.019
10 | TTTTTGCAGCAGCATGATCATTTTTTTTTTTTTTTTTTCG [GCTTT] | 0.327 ± 0.027
11 | TTTTTGCAGCAGCATGATGATTTTTTTTTTTTTTTTTTCC [CCTTT] | 0.253 ± 0.015
12 | TTTTTGCAGCAGCATGATGCTTTTTTTTTTTTTTTTTTCA [ACTTT] | 0.373 ± 0.046
13 | TTTTTGCAGCAGCATGCGCATTTTTTTTTTTTTTTTTTAT [TATTT] | 0.364 ± 0.017
14 | TTTTTGCAGCAGCATGCTCATTTTTTTTTTTTTTTTTTAG [GATTT] | 0.394 ± 0.048
15 | TTTTTGCAGCAGCATGCTGATTTTTTTTTTTTTTTTTTAC [CATTT] | 0.292 ± 0.021
16 | TTTTTGCAGCAGCATGCTGCTTTTTTTTTTTTTTTTTTAA [AATTT] | 0.439 ± 0.024
17 | TTTTTGCAGCATCAGCAGCATTTTTTTTTTTTTTTTTGTT | 0.405 ± 0.024
18 | TTTTTGCAGCATCAGCATCATTTTTTTTTTTTTTTTTGTG [GTGTT] | 0.397 ± 0.019
19 | TTTTTGCAGCATCAGCATGATTTTTTTTTTTTTTTTTGTC [CTGTT] | 0.345 ± 0.024
20 | TTTTTGCAGCATCAGCATGCTTTTTTTTTTTTTTTTTGTA [ATGTT] | 0.487 ± 0.053
21 | TTTTTGCAGCATCATCAGCATTTTTTTTTTTTTTTTTGGT [TGGTT] | 0.593 ± 0.047
22 | TTTTTGCAGCATCATCATCATTTTTTTTTTTTTTTTTGGG [GGGTT] | 0.549 ± 0.029

Row | Sequence | background-corrected fluorescence
23 | TTTTTGCAGCATCATCATGATTTTTTTTTTTTTTTTTGGC [CGGTT] | 0.457 ± 0.023
24 | TTTTTGCAGCATCATCATGCTTTTTTTTTTTTTTTTTGGA [AGGTT] | 0.638 ± 0.054
25 | TTTTTGCAGCATCATGAGCATTTTTTTTTTTTTTTTTGCT [TCGTT] | 0.361 ± 0.019
26 | TTTTTGCAGCATCATGATCATTTTTTTTTTTTTTTTTGCG [GCGTT] | 0.46 ± 0.036
27 | TTTTTGCAGCATCATGATGATTTTTTTTTTTTTTTTTGCC [CCGTT] | 0.322 ± 0.059
28 | TTTTTGCAGCATCATGATGCTTTTTTTTTTTTTTTTTGCA [ACGTT] | 0.456 ± 0.039
29 | TTTTTGCAGCATCATGCGCATTTTTTTTTTTTTTTTTGAT [TAGTT] | 0.453 ± 0.03
30 | TTTTTGCAGCATCATGCTCATTTTTTTTTTTTTTTTTGAG [GAGTT] | 0.429 ± 0.016
31 | TTTTTGCAGCATCATGCTGATTTTTTTTTTTTTTTTTGAC [CAGTT] | 0.354 ± 0.04
32 | TTTTTGCAGCATCATGCTGCTTTTTTTTTTTTTTTTTGAA [AAGTT] | 0.527 ± 0.03
33 | TTTTTGCAGCATGAGCAGCATTTTTTTTTTTTTTTTTCTT | 0.348 ± 0.026
34 | TTTTTGCAGCATGAGCATCATTTTTTTTTTTTTTTTTCTG [GTCTT] | 0.338 ± 0.046
35 | TTTTTGCAGCATGAGCATGATTTTTTTTTTTTTTTTTCTC [CTCTT] | 0.272 ± 0.035
36 | TTTTTGCAGCATGAGCATGCTTTTTTTTTTTTTTTTTCTA [ATCTT] | 0.404 ± 0.036
37 | TTTTTGCAGCATGATCAGCATTTTTTTTTTTTTTTTTCGT [TGCTT] | 0.432 ± 0.025
38 | TTTTTGCAGCATGATCATCATTTTTTTTTTTTTTTTTCGG [GGCTT] | 0.485 ± 0.024
39 | TTTTTGCAGCATGATCATGATTTTTTTTTTTTTTTTTCGC [CGCTT] | 0.406 ± 0.088
40 | TTTTTGCAGCATGATCATGCTTTTTTTTTTTTTTTTTCGA [AGCTT] | 0.533 ± 0.067
41 | TTTTTGCAGCATGATGAGCATTTTTTTTTTTTTTTTTCCT [TCCTT] | 0.325 ± 0.036
42 | TTTTTGCAGCATGATGATCATTTTTTTTTTTTTTTTTCCG [GCCTT] | 0.366 ± 0.035
43 | TTTTTGCAGCATGATGATGATTTTTTTTTTTTTTTTTCCC [CCCTT] | 0.266 ± 0.016
44 | TTTTTGCAGCATGATGATGCTTTTTTTTTTTTTTTTTCCA [ACCTT] | 0.35 ± 0.028

Row | Sequence | background-corrected fluorescence
45 | TTTTTGCAGCATGATGCGCATTTTTTTTTTTTTTTTTCAT [TACTT] | 0.378 ± 0.021
46 | TTTTTGCAGCATGATGCTCATTTTTTTTTTTTTTTTTCAG [GACTT] | 0.358 ± 0.027
47 | TTTTTGCAGCATGATGCTGATTTTTTTTTTTTTTTTTCAC [CACTT] | 0.289 ± 0.016
48 | TTTTTGCAGCATGATGCTGCTTTTTTTTTTTTTTTTTCAA [AACTT] | 0.422 ± 0.055
49 | TTTTTGCAGCATGCGCAGCATTTTTTTTTTTTTTTTTATT | 0.403 ± 0.029
50 | TTTTTGCAGCATGCGCATCATTTTTTTTTTTTTTTTTATG [GTATT] | 0.366 ± 0.024
51 | TTTTTGCAGCATGCGCATGATTTTTTTTTTTTTTTTTATC [CTATT] | 0.312 ± 0.018
52 | TTTTTGCAGCATGCGCATGCTTTTTTTTTTTTTTTTTATA [ATATT] | 0.4 ± 0.028
53 | TTTTTGCAGCATGCTCAGCATTTTTTTTTTTTTTTTTAGT [TGATT] | 0.5 ± 0.03
54 | TTTTTGCAGCATGCTCATCATTTTTTTTTTTTTTTTTAGG [GGATT] | 0.489 ± 0.054
55 | TTTTTGCAGCATGCTCATGATTTTTTTTTTTTTTTTTAGC [CGATT] | 0.385 ± 0.023
56 | TTTTTGCAGCATGCTCATGCTTTTTTTTTTTTTTTTTAGA [AGATT] | 0.531 ± 0.036
57 | TTTTTGCAGCATGCTGAGCATTTTTTTTTTTTTTTTTACT [TCATT] | 0.361 ± 0.047
58 | TTTTTGCAGCATGCTGATCATTTTTTTTTTTTTTTTTACG [GCATT] | 0.398 ± 0.08
59 | TTTTTGCAGCATGCTGATGATTTTTTTTTTTTTTTTTACC [CCATT] | 0.286 ± 0.017
60 | TTTTTGCAGCATGCTGATGCTTTTTTTTTTTTTTTTTACA [ACATT] | 0.397 ± 0.025
61 | TTTTTGCAGCATGCTGCGCATTTTTTTTTTTTTTTTTAAT [TAATT] | 0.412 ± 0.019
62 | TTTTTGCAGCATGCTGCTCATTTTTTTTTTTTTTTTTAAG [GAATT] | 0.411 ± 0.026
63 | TTTTTGCAGCATGCTGCTGATTTTTTTTTTTTTTTTTAAC [CAATT] | 0.314 ± 0.026
64 | TTTTTGCAGCATGCTGCTGCTTTTTTTTTTTTTTTTTAAA [AAATT] | 0.487 ± 0.042
65 | TTTTTGCATCAGCAGCAGCATTTTTTTTTTTTTTTTGTTT | 0.396 ± 0.06
66 | TTTTTGCATCAGCAGCATCATTTTTTTTTTTTTTTTGTTG [GTTGT] | 0.373 ± 0.017
